Earlier results on 1 substance are cited in paper PMC9594772.

For the data set, the target named is Dll4 ECD (Rattus norvegicus) (UniProt D3ZHH1).
Chain of Dll4 ECD (Rattus norvegicus) (D3ZHH1 28-530): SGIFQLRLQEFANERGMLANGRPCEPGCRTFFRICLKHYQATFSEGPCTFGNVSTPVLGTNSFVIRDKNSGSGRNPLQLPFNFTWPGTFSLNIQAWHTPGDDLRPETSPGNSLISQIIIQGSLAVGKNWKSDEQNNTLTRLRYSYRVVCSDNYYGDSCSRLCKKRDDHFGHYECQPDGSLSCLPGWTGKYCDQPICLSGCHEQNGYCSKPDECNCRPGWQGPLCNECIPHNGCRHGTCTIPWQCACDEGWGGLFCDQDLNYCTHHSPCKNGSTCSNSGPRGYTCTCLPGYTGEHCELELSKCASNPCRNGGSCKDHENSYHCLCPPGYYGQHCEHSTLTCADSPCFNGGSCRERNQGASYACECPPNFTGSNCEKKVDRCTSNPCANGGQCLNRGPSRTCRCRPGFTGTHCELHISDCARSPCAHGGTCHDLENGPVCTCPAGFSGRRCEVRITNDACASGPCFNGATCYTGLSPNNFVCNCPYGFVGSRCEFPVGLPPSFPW

In the case of Notch1 (from UniProt P46531), the dissociation constant Kd (as a rule, a measure of binding affinity in units of concentration) is 12.7 µM.
